Laboratory results as given in PMC9596850, “Tonsillar Microbiome‐Derived Lantibiotics Induce Structural Changes of IL‐6 and IL‐21 Receptors and Modulate Host Immunity” (Advanced Science, 2022).

Tests used:
Details in all cases: both partners purified
[1] = target: T1, murine IL-6 receptor subunit alpha (mouse, UniProt P22272 20-364); assay: SPR; Biacore 8K; receptor immobilised on a CM5 chip by amine coupling, 25 °C, PBS-P running buffer, analyte with 5% DMSO; 1:1 binding model
T1 construct: also called mIL-6Rα; IL-6Rα; source: bought: abcam
T1 sequence (looked up): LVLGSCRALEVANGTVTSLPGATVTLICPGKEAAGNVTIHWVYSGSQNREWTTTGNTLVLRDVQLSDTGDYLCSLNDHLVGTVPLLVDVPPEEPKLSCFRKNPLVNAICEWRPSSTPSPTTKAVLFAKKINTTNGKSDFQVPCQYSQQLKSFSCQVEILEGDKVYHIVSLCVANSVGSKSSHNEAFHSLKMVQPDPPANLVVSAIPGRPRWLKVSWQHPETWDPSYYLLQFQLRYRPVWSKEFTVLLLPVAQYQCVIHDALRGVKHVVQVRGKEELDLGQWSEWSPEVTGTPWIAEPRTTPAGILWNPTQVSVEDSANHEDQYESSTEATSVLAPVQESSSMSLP

[2] = target: T2, murine IL-6 receptor subunit alpha (mouse, UniProt P22272 20-364); assay: SPR; Biacore 8K; murine IL-6Rα or IL-21R (20 nM) immobilised on a CM5 chip by amine coupling, 25 °C, PBS-P running buffer; analytes with 5% DMSO injected serially (salivaricin B and mutants 12.5-800 µM; mIL-6 0.003125-0.1 µM; mIL-21 0.625-5 nM); KD of salivaricins from a steady-state affinity model
T2 construct: also called IL-6Rα; mIL-6R; source: bought: abcam
T2 sequence (looked up): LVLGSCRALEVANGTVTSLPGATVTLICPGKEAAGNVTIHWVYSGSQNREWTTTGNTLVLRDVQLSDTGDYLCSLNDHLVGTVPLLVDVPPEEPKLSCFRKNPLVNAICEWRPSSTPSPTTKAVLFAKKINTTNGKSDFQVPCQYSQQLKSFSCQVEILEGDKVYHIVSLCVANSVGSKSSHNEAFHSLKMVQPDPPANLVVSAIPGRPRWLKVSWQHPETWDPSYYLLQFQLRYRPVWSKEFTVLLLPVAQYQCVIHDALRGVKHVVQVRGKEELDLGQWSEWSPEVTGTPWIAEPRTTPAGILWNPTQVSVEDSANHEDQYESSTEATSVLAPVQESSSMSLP

murine IL-21 receptor = target: T3, murine IL-21 receptor (mouse, UniProt Q9JHX3 20-237); assay: as above
T3 construct: also called mIL-21R; Mouse IL-21R; source: bought: Sino Biological

murine IL-21 = murine IL-21 (mouse, UniProt Q9ES17 18-146); assay: SPR; Biacore 8K; receptor immobilised on a CM5 chip by amine coupling, 25 °C, PBS-P running buffer, analytes with 5% DMSO; steady state affinity model
[3] = target: T1, murine IL-6 receptor subunit alpha; assay: as above
[4] = target: T4, recombinant mouse IL-6 receptor subunit alpha protein with the Fc region of mouse IgG2a (mouse, UniProt P22272 20-364); assay: SPR; Biacore 8K; receptor immobilised on CM5 chip by amine coupling, 25 °C, PBS-P running buffer; analytes with 5% DMSO injected serially; steady-state affinity model
T4 construct: also called Fc-IL-6Rα; IL-6Rα; source: bought: abcam
T4 sequence (looked up): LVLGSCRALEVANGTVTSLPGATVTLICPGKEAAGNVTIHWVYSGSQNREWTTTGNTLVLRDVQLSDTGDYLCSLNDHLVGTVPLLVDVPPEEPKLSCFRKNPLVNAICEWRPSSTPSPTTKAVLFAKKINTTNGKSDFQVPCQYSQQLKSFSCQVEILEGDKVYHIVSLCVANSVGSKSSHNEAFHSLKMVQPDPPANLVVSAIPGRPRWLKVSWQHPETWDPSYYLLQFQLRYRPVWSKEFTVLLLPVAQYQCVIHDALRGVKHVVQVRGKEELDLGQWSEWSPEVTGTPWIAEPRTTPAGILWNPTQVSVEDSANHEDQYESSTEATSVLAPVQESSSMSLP

[5] = target: T5, mouse IL-21 receptor protein with the Fc region of human IgG1 (mouse, UniProt Q9JHX3 20-237); assay: as above
T5 construct: also called IL-21R-Fc; murine IL-21R; source: bought: Sino Biological

B1: murine IL-6 (ligand, mouse, UniProt P08505 25-211, looked up)
chain: FPTSQVRRGDFTEDTTPNRPVYTTSQVGGLITHVLWEIVEMRKELCNGNSDCMNNDDALAENNLKLPEIQRNDGCYQTGYNQEICLLKISSGLLEYHSYLEYMKNNLKDNKKDKARVLQRDTETLIHIFNQEVKDLHKIVLPTPISNALLTDKLESQKEWLRTKTIQFILKSLEEFLKVTLRSTRQT
notes: also called mIL-6
Kd [1]: 0.0137 µM

B2: salivaricin B (peptide)
peptide: GGGVIQTISHECRMNSWQFLFTCCS
notes: salivaricin B, lantibiotic peptide commonly synthesized by Streptococcus salivarius; chemically synthesized; Molecular weight on the synthesis report is 2805.23; also called SalB; source: synthetic peptide (solid-phase synthesis, RoYo Biotech; HPLC purified, purity more than 96%)
Kd [2]: 354 µM
Kd (murine IL-21 receptor): 12.6 µM

B3: murine IL-21 receptor (receptor)
chain: not shown
notes: also called mIL-21R; source: bought: Sino Biological
Kd (murine IL-21): 0.0349 nM

B4: salivaricin A2 (peptide)
peptide: KRGTGWFATITDDCPNSVFVCC
notes: salivaricin A2, lantibiotic peptide commonly synthesized by Streptococcus salivarius; also called SalA2; source: synthetic peptide (solid-phase, RoYo Biotech), HPLC purified, purity more than 96%
Kd [3]: 51.4 µM

B5: salivaricin B (peptide)
peptide: GGGVIQTISHECRMNSWQFLFTCCS
notes: salivaricin B, lantibiotic peptide commonly synthesized by S. salivarius; Chemically synthesized; also called SalB; source: synthetic peptide (solid-phase, RoYo Biotech; HPLC, purity more than 96%)
Kd [4]: 160 µM
Kd [5]: 10.1 µM
